Entries after “also recorded” stand apart in the source; their conditions may differ.
Experiments:
[1] = molecular target: T1, human plasma kallikrein (Homo sapiens, UniProt P03952); assay: Human plasma kallikrein-inhibiting activity, substrate S-2302; assay type: biochemical; conditions: for human plasma kallikrein-inhibiting activity: purified sample, various concentrations, remaining activity vs buffer control (FIG. 17A-C)
T1 construct: purchased Sigma Chemical Co
Protocol: The purified sample obtained in Example 1-(5) was dissolved in 100 μl of distilled water. Concentration of this solution was determined based on its bovine trypsin-inhibiting activity using the aforementioned UTI as a standard. The solution was then diluted to various concentration levels with 0.1% BSA/150 mM NaCl/50 mM Tris-HCl buffer (pH 8.3) for use in the activity measurement. The UTI was also diluted in the same manner. Using a synthetic compound S-2302 (Daiichi Pure Chemicals Co., Ltd.) as a substrate, human plasma kallikrein-inhibiting activities of the diluted test samples and the positive control were measured in accordance with the method of Ohno et al. (Ohno,H. et al., Thromb. Res., vol.19, pp.579-588, 1980) as follows.
0.26 U/ml solution of human plasma kallikrein (Sigma Chemical Co.) was diluted with 0.1% BSA/150 mM NaCl/50 mM Tris-HCl buffer (pH 8.3) to prepare 0.08 U/ml of plasma kallikrein solution. 4 mM solution of S-2302 was prepared by dissolving it in distilled water and the solution was further diluted with 0.1% BSA/150 mM NaCl/50 mM Tris-HCl buffer (pH 8.3) to prepare 2 mM solution of S-2302.
Next, 25 μl of the test sample or positive control was mixed with 75 μl of 0.1% BSA/150 mM NaCl/50 mM Tris-HCl buffer (pH 8.3) and 50 μl of the plasma kallikrein solution. After incubation at 37° C. for 10 minutes, 50 μl of the S-2302 solution was added to the mixture to start the reaction. The reaction was carried out at 37° C. for 8 minutes and then stopped by adding 25 μl of 50% acetic acid solution to the reaction mixture. Thereafter, absorbance at 405 nm was measured using a spectrophotometer.
In this instance, in order to eliminate absorbance of various solutions in the reaction mixture a blank solution was prepared by mixing 50 μl of the plasma kallikrein solution with 25 μl of 50% acetic acid and then with 25 μl of each test sample or the positive control, 75 μl of 0.1% BSA/150 mM NaCl/50 mM Tris-HCl buffer (pH 8.3) and with 50 μl of the S-2302 solution.
In this figure, human plasma kallikrein remaining activity was expressed by percentage based on the absorbance of a control reaction mixture in which 25 μl of 0.1% BSA/150 mM NaCl/50 mM Tris-HCl buffer (pH 8.3) was used instead of the test sample or the positive control.

[2] = tested on: ORTHO Plasma Coagulation Control Level 1; assay: Measurement of activated partial thromboplastin time (aPTT); conditions: for effect on aPTT, anticoagulant activity: conclusion from Table 1; for aPTT (%): aPTT of distilled water control taken as 100%
Protocol: The COAGTEC (TE-600, ERMA OPTICAL WORKS LTD), a measurement instrument, was used and the following operation was conducted at 37° C. to measure the effect of polypeptide of the present invention on activated partial thromboplastin time (hereinafter abbreviated as aPTT).
First, purified samples obtained in Example 1 (5), Example 2 (5) and Example 3 (4) were dissolved in 100 μl of distilled water. Concentration of each solution was determined based on bovine trypsin-inhibiting activity using UTI as a standard. Each solution was then diluted to various concentration levels for activity measurement.
Afterward, 50 μl of the ORTHO Plasma Coagulation Control Level 1 (Ortho Diagnostic Systems Co., Ltd.) was put into glass tubes. 50 μl of the sample or 50 μl of distilled water as control was added. Furthermore, 100 μl of the Activated THROMBOFAX Reagent-Optimized (Ortho Diagnostic Systems Co., Ltd.) was added and then each glass tube was set in the apparatus. 100 μl of 0.02M CaCl2 was then added to each glass tube for the measurement, and aPTT for each test samples and the control was obtained.
The aPTT values of the samples are described in percentage when taking the aPTT value of control as 100%.

[3] = tested on: trypsin; conditions: literature report; cited from earlier work
[4] = tested on: chymotrypsin; conditions: literature report; cited from earlier work
[5] = molecular target: FXa (Homo sapiens, UniProt P00742); conditions: literature reports, very high concentration; cited from earlier work
[6] = molecular target: plasmin (Homo sapiens, UniProt P00747); conditions: literature report; cited from earlier work
[7] = tested on: elastase; conditions: literature report; cited from earlier work

T1 sequence (P03952 20-638): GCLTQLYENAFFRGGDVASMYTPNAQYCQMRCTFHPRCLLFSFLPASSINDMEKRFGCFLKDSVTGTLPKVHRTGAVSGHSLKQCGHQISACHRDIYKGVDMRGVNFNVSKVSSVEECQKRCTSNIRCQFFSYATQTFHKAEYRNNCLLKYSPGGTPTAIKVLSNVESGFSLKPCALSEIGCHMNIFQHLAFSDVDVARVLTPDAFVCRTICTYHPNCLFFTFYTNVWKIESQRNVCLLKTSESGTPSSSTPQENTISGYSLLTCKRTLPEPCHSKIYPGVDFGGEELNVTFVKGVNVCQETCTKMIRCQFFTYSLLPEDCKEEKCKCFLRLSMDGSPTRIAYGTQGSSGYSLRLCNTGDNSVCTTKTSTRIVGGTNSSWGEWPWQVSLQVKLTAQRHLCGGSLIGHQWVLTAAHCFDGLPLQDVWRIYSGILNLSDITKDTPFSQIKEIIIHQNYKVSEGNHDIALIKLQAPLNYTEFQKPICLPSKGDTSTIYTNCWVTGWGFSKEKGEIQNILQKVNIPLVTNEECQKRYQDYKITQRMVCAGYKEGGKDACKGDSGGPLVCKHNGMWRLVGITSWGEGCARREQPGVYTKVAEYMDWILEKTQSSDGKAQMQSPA
FXa, sequence (P00742 235-488 limits assumed): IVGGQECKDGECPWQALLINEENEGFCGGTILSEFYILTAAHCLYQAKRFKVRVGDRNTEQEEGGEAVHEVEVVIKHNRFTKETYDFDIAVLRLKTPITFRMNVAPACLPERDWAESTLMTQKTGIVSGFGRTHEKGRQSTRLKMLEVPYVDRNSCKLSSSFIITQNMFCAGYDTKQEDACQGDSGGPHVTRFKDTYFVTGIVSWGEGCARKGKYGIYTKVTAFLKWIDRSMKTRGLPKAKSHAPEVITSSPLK
FXa, sequence (P00742 41-179 partner limits assumed): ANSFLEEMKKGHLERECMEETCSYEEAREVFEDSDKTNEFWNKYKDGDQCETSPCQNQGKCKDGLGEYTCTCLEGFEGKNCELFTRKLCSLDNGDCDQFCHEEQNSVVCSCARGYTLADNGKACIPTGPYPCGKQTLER
plasmin, sequence (P00747 581-810 limits assumed, species assumed): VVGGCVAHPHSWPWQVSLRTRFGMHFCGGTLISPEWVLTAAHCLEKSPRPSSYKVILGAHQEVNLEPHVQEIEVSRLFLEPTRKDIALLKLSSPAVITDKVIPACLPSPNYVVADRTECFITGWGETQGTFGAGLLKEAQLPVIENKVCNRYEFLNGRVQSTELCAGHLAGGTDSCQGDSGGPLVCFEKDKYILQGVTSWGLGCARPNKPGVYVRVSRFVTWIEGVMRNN
plasmin, sequence (P00747 97-580 partner limits assumed, species assumed): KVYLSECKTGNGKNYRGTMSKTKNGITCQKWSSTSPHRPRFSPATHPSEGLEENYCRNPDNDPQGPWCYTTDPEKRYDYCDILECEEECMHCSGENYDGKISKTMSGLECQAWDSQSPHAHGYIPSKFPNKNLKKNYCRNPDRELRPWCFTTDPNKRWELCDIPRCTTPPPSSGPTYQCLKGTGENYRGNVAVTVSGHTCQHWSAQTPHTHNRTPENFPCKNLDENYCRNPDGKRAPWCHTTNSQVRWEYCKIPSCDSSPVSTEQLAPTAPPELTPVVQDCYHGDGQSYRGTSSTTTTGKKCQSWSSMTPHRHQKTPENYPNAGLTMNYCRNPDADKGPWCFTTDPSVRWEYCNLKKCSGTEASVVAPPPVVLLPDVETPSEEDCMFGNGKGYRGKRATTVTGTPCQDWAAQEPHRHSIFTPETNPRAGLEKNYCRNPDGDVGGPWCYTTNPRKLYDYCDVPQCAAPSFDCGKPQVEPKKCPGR

human plasma kallikrein-inhibiting activity [1] | plasma kallikrein-inhibiting activity ([1]; experiments of the inventors, stated in the background) | Molecule | effect on aPTT, anticoagulant activity [2] | aPTT (%) ([2]; final concentration 33 U/ml) | aPTT (%) ([2]; final concentration 167 U/ml) | inhibition of trypsin [3] | inhibition of chymotrypsin [4] | inhibition of FXa activity [5] | inhibition of plasmin [6] | inhibition of elastase [7]
activity was not found | no plasma kallikrein-inhibiting activity | UTI: urinary trypsin inhibitor purified from human urine (Mochida Pharmaceutical), used as positive control (protein, glycoprotein (sugar moieties, as the filing says in general of UTI)) AVLPQEEEGSGGGQLVTEVTKKEDSCQLGYSAGPCMGMTSRYFYNGTSMACETFQYGGCMGNGNNFVTEKECLQTCRTVAACNLPIVRGPCRAFIQLWAFDAVKGKCVLFPYGGCQGNGNKFYSEKECREYCGVPGDGDEELLRFSN |  |  |  | shows the inhibition activities | shows the inhibition activities | slightly inhibited; also recorded: inhibited the FXa activity | shows the inhibition activities | shows the inhibition activities
activity was found |  | TL66: polypeptide defined by formula 8; known enzyme-digested fragment of urinary trypsin inhibitor, made in E. coli JE5505 (pM551) (protein) TVAACNLPIVRGPCRAFIQLWAFDAVKGKCVLFPYGGCQGNGNKFYSEKECREYCGVPGDGDEELL | have an effect to extend aPTT and anticoagulant activity | 157 | 239 | activities to inhibit | activities to inhibit |  | activities to inhibit | 

More lines, now with the values behind:

Molecule | human plasma kallikrein-inhibiting activity [1] | plasma kallikrein-inhibiting activity ([1]; experiments of the inventors, stated in the background) | effect on aPTT, anticoagulant activity [2] | aPTT (%) ([2]; final concentration 33 U/ml) | aPTT (%) ([2]; final concentration 167 U/ml) | inhibition of trypsin [3] | inhibition of chymotrypsin [4] | inhibition of FXa activity [5] | inhibition of plasmin [6] | inhibition of elastase [7]
CC51: polypeptide defined by the amino acid sequence of formula 1, purified from culture supernatant of E. coli JE5505 (pM560) (CNLPIVRGPCRAFIQLWAFDAVKGKCVLFPYGGCQGNGNKFYSEKECREYC) | activity was found |  | have an effect to extend aPTT and anticoagulant activity | 172 | 256 |  |  |  |  | 
TN70: polypeptide defined by the amino acid sequence of formula 3, purified from culture supernatant of E. coli JE5505 (pM552) (protein) TVAACNLPIVRGPCRAFIQLWAFDAVKGKCVLFPYGGCQGNGNKFYSEKECREYCGVPGDGDEELLRFSN | activity was found |  | have an effect to extend aPTT and anticoagulant activity | 155 | 230 |  |  |  |  | 

Reference: patent US5792629A, “Isolated DNA encoding novel protease inhibitory polypeptide” (Mochida Pharmaceutical Co., Ltd., priority 1990, dated 1998)
